Reference: PMC2597655

Key:
[1] = molecular target: DNA polymerase beta I260Q (UniProt P06766 1-335, I260Q); assay: EMSA
DNA polymerase beta WT = DNA polymerase beta WT (UniProt P06766 1-335); assay: EMSA

B1: CII5T A:A (5 nt gap, mispaired primer terminus) (dsDNA)
DNA 1: TTGCGACTTATCAACGCCCACAA
DNA 2: GCTGTCTTCTCAGTTTC
DNA 3: GAAACTGAGAAGACAGCTACTGATGTGGGCGTTGATAAGTCGCAA
modifications: 5'-phosphate on downstream oligo and template
B1 was tested. Which Kd [1] did it give?
Its Kd is 2 nM.

And the Kd (DNA polymerase beta WT)?
The Kd was 6 nM.
